Data taken from the nanobody polyreactivity screen of Harvey et al. (2022).

Assay: yeast display, Sf9 membrane polyspecificity reagent, FACS + sequencing; frameworks hold sequencing errors
Procedure, shortened: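 A synthetic nanobody library was expressed on Saccharomyces cerevisiae BJ5465 by galactose induction for 36–48 hours. The library was stained for 1 hour at 4 °C with 10% biotinylated, detergent-solubilized Sf9 membrane reagent and enriched with streptavidin microbeads before FACS. Low and high (top ~1%) gates were set on anti-HA fluorescence for expression and streptavidin fluorescence for reagent binding, and each polyreactivity label reflects the gate of origin.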

Question: Which “polyreactivity (PSR sort gate)” value does the source give for “QVQLVESGGGLVQAGGSLRLSCAASGRIVTAYAMGWYRPAPGKEREFVAAISSSGGSTYADSVKGRFTISRDNAKNTVYLQINSLKPEDTAVYYCAARYGFYWFPGYYYWGQGTQVTVSS” here?
Answer: low polyreactivity

Question: With “QVQLVESGGGLFQAGGSLRLSCAASGSTFYIYAMGWYRHAPGKERELVARITRGGTTYADSVKGRFTISRDNAKNTVYLQMNSLKPEDTAVYYCNAYISDDRYWSPAIEEDYWGQGTQVTVSS” as the sequence, how does the “polyreactivity (PSR sort gate)” value read?
Answer: high polyreactivity

Question: With “QVQLVESGGGLVQAGGSLRLSCAASGFIFRSNAMGWYRQAPGKEREFVAAISSRGGSTTYADSVKGRFTISRDNAKNTVYLQMNSLKPEDTAVYYCARSLRRFVVAYDYWGQGTQVTVSS” as the sequence, how does the “polyreactivity (PSR sort gate)” value read?
Answer: high polyreactivity

Question: Which “polyreactivity (PSR sort gate)” value does the source give for “QVQLVESGGGLVQAGGSLRLTCAASGFIVKYNAMGWYRQAPGKERELVAAITSTGSTNYADSVKGRFTISRDNAKNTVYFQMISLKPEDNAVYYCAAYWRSRNRFNWGQGTQVTVTS” here?
Answer: high polyreactivity

Question: Which “polyreactivity (PSR sort gate)” value does the source give for “QVQLVESGGVLVQAGGSLRLSCAASGRTFYGYSMGWYRQAAGKEREFVSDITYSGGRTYYADSVKGRFTISRDNAKNTVYLQMYSLKPEDTAVYYCNAYYYYVNQGRYEYGYWGQGTQVTVSS” here?
Answer: high polyreactivity

Question: Which “polyreactivity (PSR sort gate)” value does the source give for “QVQLVESGGGLVQAGGSLRLSCAASGSIFEYTGMGWYRQAPGKERELVAAITTTGTTDYADSVKGRFTISRDNAKNTVYLQMNSLKPEDTAVYYCAADYTYYYKVEYDYWGQGTQVTVSS” here?
Answer: low polyreactivity

Question: With “QVQLVESGGGLVQAGGSLRLSCAASGRISFYYAMGWYRQAPGKERELVAAISRGGSTYYADSVKGRFTISRDNAKNTVYLQMNSLKPEDTAVYYCAATYSGVDTPSGYDYWGQGTQVTVSS” as the sequence, how does the “polyreactivity (PSR sort gate)” value read?
Answer: low polyreactivity

Question: Which “polyreactivity (PSR sort gate)” value does the source give for “QVQLVESGGGLVQAGGSLRLTCAASGRTFSYYTIGWYRQAPGKELELVADITGSGGSTYYADSVKGRFTISRDNAKNTVYLQINSLKPEDTAVYYCSAGWPYVYYTWYWTMDYWGQGTQVTVSS” here?
Answer: high polyreactivity

Question: With “QVQLQESGGGLVQAGGSLRLSCAASGTISQEDWMGWYRQAPGKEREFVAPIGLGSNTNSADSLKGRFTISRDNAKNTVYLHMNSLKPEDTAVYYCAVCVWQYSDHVYRGQGTQVTVSS” as the sequence, how does the “polyreactivity (PSR sort gate)” value read?
Answer: low polyreactivity

Question: For “QVQLVESGGGLVQAGGSLRLSCAASGSIFRWYDMGWYRQAPGKERELVAVISKRGGSTYYADSVKGRFSISRDNAKNTVYLQMTSLKPEDTAVYSCAKRYERWQLARLDYWGQGTQVTVSS”, which “polyreactivity (PSR sort gate)” value is on record?
Answer: high polyreactivity

Question: For “QVQLVESGGGLVQAGGSLRLSCAASGSIFNRYAMGWYRPAPGKERELVAAISRSGGRTYYADSVKGRFTISRDNAKNTVYLQMNSLKPEDTAVYYCAADKYYRQHEFDYWGQGTQVTVSS”, which “polyreactivity (PSR sort gate)” value is on record?
Answer: high polyreactivity

Question: Which “polyreactivity (PSR sort gate)” value does the source give for “QVQLVESGGGLVQAGGSLRLSCAASGFTLGFNARGWYRQAPGKERELVAAITIGGTTYYADSVKGRFTISRDNAKNTVYLQMNSLKPEDTAVYYCAAARFLWFYVYTTRVQRYGYWGQGTQVTVSS” here?
Answer: low polyreactivity

Question: For “QFQLVESGGGLVQAGGSLRLSCAASGSTFGTYAMGWYRQAPGKERELVAAISSGGSTYYADSVKGRFTISRDNAKNTVYLQMNSLKPEDTAVYYCAAGYYWYVWGFGYWGQGTQVTVSS”, which “polyreactivity (PSR sort gate)” value is on record?
Answer: low polyreactivity

Question: For “QVQLVESGGGLVQAGGSLRLSCAASGYTIRNYAMGWYRQAPGTERELVAAIRGSGGSTYYADSVKGRFTISRDNAKNTVYLQMNSLKPEDTAVDYCNADQLVWQRYGVLYEYDYWGQGTQVTVSS”, which “polyreactivity (PSR sort gate)” value is on record?
Answer: high polyreactivity

Question: With “QVQLVESGGGLVQAGGSLRLSCAASGRTFVYYAMGWYRQAPGKERELVAAITFSGGSTYYADSVKGRFTISRDNAKNTVYLQMNSLKPEDTAVYYCAAQYRYSYPLGDYWGQGTQVTVSS” as the sequence, how does the “polyreactivity (PSR sort gate)” value read?
Answer: low polyreactivity

Question: Which “polyreactivity (PSR sort gate)” value does the source give for “QVQLVESGGGLVQAGGSLRLSCAASGLIFYYYAMGWYRQAPWKEREFVAAISRSGGIKRYADSVKGRFTISRDNAKNTVYLQMNSLKPEDTAVYYCAARYYYRHAQSFPWSNRWSSYYYWGQGTQVTVSS” here?
Answer: high polyreactivity

Question: Which “polyreactivity (PSR sort gate)” value does the source give for “QVQLVESGGGLVHAGGSLRLSSAPSGSTFQAYAMGWYRAAPGKERELVAAINEGDSRTYYADSVKGRFTISRDNAKNTVYLPMNSQKPEDTAVYYCAIGNFRPYDYWGQGTQVTVSS” here?
Answer: low polyreactivity

Question: Which “polyreactivity (PSR sort gate)” value does the source give for “QVQLVESGGGVVQAGGSLRLSCAASGSTFARKAMGWYRPAPGKERELVAAITYSGGRTYYADSVKGRVTISRDNAKNTVYLQMNRLKPVDTAVYYCAVKSFSGHGDYWGQGTQVTLSS” here?
Answer: low polyreactivity

Question: Which “polyreactivity (PSR sort gate)” value does the source give for “QVQLVESGGGLVQAGGSLRLSCAASGRIFSTNAMGWYRQAPWKERELVASISKSGGSTYYADSVKGRFTISRDNAKNTVYLQMNSLKPEDTAVYYCAASSYSTSYIRGDYWGQGTQVTVSS” here?
Answer: low polyreactivity

Question: With “QVQLVESGGGLVQAGGSHRLSCAASGIISPFYAMGWYRQAPGKERELVADISTGGTTTYADSVKGRFTISRDNAKNTVYLQMNSLKPEDTAVYYCNAEVSLTYYWIVWASYDYWGQGTQVTVSS” as the sequence, how does the “polyreactivity (PSR sort gate)” value read?
Answer: low polyreactivity

Question: Which “polyreactivity (PSR sort gate)” value does the source give for “QVQLVESGGGLVQAGGSLRLSCAASGRIFNGYAMGWYRQAPGKERELVASITSAGSTYFADSVTGRVTISRDNAKNTVYVQMNRLKPEDTAVYYCAADSYSVYYYTYDSWGQGTQVTVSS” here?
Answer: low polyreactivity

Question: For “QVQLVESGGGLVQAGGSVRLSCAASGSTSAYAMGWYRQAPGKEREFVAAIRFSAGSTYYADSVKGRFTISRDNAKNTVYLQMNSLKPEDTAVYYCAASYSVIFGYFPDYYWVVEYDYWGQGTQVTVSS”, which “polyreactivity (PSR sort gate)” value is on record?
Answer: high polyreactivity

Question: With “QVQLVESGGGLVQAGCSLRLSCGASGSIFAYYDMGWYREAPGTEREVVAAITTRDDDTYYADSVKGRFTISRDTAKNPVYLQMNSLKPEDTAVYYCAAAWWDYGNGKYDYWGQGTQVTVSS” as the sequence, how does the “polyreactivity (PSR sort gate)” value read?
Answer: low polyreactivity

Question: With “QVQLVDSGGGLVQAGGSLRLSCAASGYIFPWYVKGWYRQAPVKERELVAAISWSGGSTYYADSVKGRFTISRDNAKNTVYLQMKSLKPEDTAVYYCNAVRTYRDVSYNSWGQGTQVNVSS” as the sequence, how does the “polyreactivity (PSR sort gate)” value read?
Answer: high polyreactivity

Question: Which “polyreactivity (PSR sort gate)” value does the source give for “QVQLQESGGGLVQAGGSLRLSCAASCTISQEDWMGWYRQAPGKEREFVAAIGLGSNTNYAESLKGRFTISRDNAKKTVYLQLHSLKPEDTAVYYCAVSVWQYSDHVYGGQGTQVTVSS” here?
Answer: low polyreactivity

Question: Which “polyreactivity (PSR sort gate)” value does the source give for “QVQLVESGGGLVQAGGSLRLSCAASGRTFGRYAMGWYRQAPGKEREFVASMSRRGGTTYYADSVKGRFTISRDNEKNTVYLQMNSLNPEDTAVYYCNADRTVIYDYEYWGQGTQVTVSS” here?
Answer: low polyreactivity

Question: With “QVQLVESGGGLVQAGGSLRLSCAASGITFWPYAMGWYIQAPGKERELVAAIRASAGRTYYADSVKGRFTISRDNAKNTVYLQMNSLKPEDTAVYYCNAYGRYGKFRVEYDYWGQGTQVTVSS” as the sequence, how does the “polyreactivity (PSR sort gate)” value read?
Answer: low polyreactivity

Question: For “QVQLVESGGGLVQAGGSLRLSCAASGSTFDRNAMGWYRPAPGKERELVAAISWTGTSTRYADSVKGRFTISRDNAKNTVYLHMNSLKPEDTAGYYCAARGYSYYQRLYYWGQGTQVTVSS”, which “polyreactivity (PSR sort gate)” value is on record?
Answer: high polyreactivity

Question: Which “polyreactivity (PSR sort gate)” value does the source give for “QVQLVESGGGLVQAGGSLRLSCAASGIIFVKYTMGWYRQAPGKERELVAAISRSGGSTYYADSVKGRFTISRDNAKNTVYLQMNSLKPEDTAVYYCNAVSRKVYPGPMDYWGQGTQVTVSS” here?
Answer: high polyreactivity

Question: For “QVQLVESGGGLVQAGGSLRLSCAASGYTFLKYAMGWYRQAPGKERELVAAISGRGGRTYYADSVKGRFTISRDNAKNTVYLQMNSLKPEDTAVYYCNAVRNSPDDYWGQGTQVTVSS”, which “polyreactivity (PSR sort gate)” value is on record?
Answer: high polyreactivity

Question: With “QVQLQDSGGGLVQAGGSLGLSCAASGYIFGSGSMGWFRQAPGKERELVATINNGSSTYYADSVKGRFTISRDNSKNTVSLQMNSLKPEDTAVYYCAVYLYRLTFFYYWGQGNQVTVSS” as the sequence, how does the “polyreactivity (PSR sort gate)” value read?
Answer: high polyreactivity

Question: Which “polyreactivity (PSR sort gate)” value does the source give for “QVQLVDSGGGLVQAGGSLRLSCAASGSIFIINAKGWYRQSPGKERELVAAINSGGSTKYADSVKGRFTISRDNAKNTVYLQMNSLKPEDTAVYYCNAGSRPTAGGMDSWGQGTQVTVSS” here?
Answer: low polyreactivity

Question: With “QVQLVESGGGLVQAGGSLRLSCAASGRTFFINTMGWYRQAPGKERELVAAITWSGGSTYYADSVKGRFTISRDNAKNTVYLQMNSLKPEDTAVYYCAAVYVYRPDIIYVEVAYDYWGQGTQVTVSS” as the sequence, how does the “polyreactivity (PSR sort gate)” value read?
Answer: low polyreactivity

Question: For “QVQLVESGGGLLQAGGSLRLSCAASGHIFRGYTMGWYRPAPGKERELVATITWNGVSTFYADSVKGRFTISRDTAKNTVYLQMNSLKPEDTSVYYCAAYYASHDYSGFWSDTYEYWGQGTQVTVSS”, which “polyreactivity (PSR sort gate)” value is on record?
Answer: low polyreactivity

Question: For “QVQLVESGGGLVQAGGSLRLSCAASGRTLVYYAMGWYRQAPGKERELVAAITSVGSTNYADSVKGRFTISRDNAKNTVYLQMNSLKPEDTAVYYCAVRRVVARYDHWGQGTQVTVSS”, which “polyreactivity (PSR sort gate)” value is on record?
Answer: low polyreactivity

Question: Which “polyreactivity (PSR sort gate)” value does the source give for “QVQLVESGGGLVQAGGSLRLSCAASGLTFSTYDMGGYRQAPGKERELVAAITSGDGSTYYADSVKGRFTISRDNAKNTVYLQMNSLKPEDTAVYYCAADYLEWYGDVLFPYDYWGQGTQVTVSS” here?
Answer: low polyreactivity

Question: For “QVQLVDSGGGLVQAGGSLRLSCAASGITITEYAMGWYRQAPGKERELVAVISSVGTMYYADSVKGRFTISRDNAKNTVYFQMNSLKPEDTAVYYCAADYSDDGEYPYWSGSDYWGQGTQVTVSS”, which “polyreactivity (PSR sort gate)” value is on record?
Answer: low polyreactivity

Question: With “KFQLVESGGGLVQAGGRLRLSCAASGSTFWDYAMGWYRQATGKERQLVAVITSSGGGTYYADSVKGRFTISRDNSKNTVYLLMNSLKPEDTAVYYCAKKRPYSNGGYYWGQGSQVTVSS” as the sequence, how does the “polyreactivity (PSR sort gate)” value read?
Answer: high polyreactivity

Question: For “QVQLVESGGGLVQAGGSLRLSCAASGNIFTSYAMGWYRQAPGKERELVAAISSGGRTSYADSVKGRFTISRDNAKNTVYLEMNSLKPEDNAVYYCAAYYRRWQREYYYWGQGTKVTVSS”, which “polyreactivity (PSR sort gate)” value is on record?
Answer: high polyreactivity

Question: Which “polyreactivity (PSR sort gate)” value does the source give for “QVQLVESGGGLVQAGGSLRLSCAASGINFIYNAMGWYRQAPGKERELVATISRRGGSTYYADSVKGRFTISRDNAKNTVYLQMNSLKPEVTAVYYSARDVGAGSKISRLSSYNYWGQGTQVTVSS” here?
Answer: low polyreactivity
